Reference: US20120231013A1 (Amgen, published 2012)
Numbering of substitutions follows the chain as printed. “And” between values parts separate entries of the source, which are not always exact repeats. Equal values may be shown once.

T1: recombinant human TIMP-3 (human, UniProt P35625 24-211)
T1 construct: also called HuTIMP-3; huTIMP-3
T1 sequence (looked up): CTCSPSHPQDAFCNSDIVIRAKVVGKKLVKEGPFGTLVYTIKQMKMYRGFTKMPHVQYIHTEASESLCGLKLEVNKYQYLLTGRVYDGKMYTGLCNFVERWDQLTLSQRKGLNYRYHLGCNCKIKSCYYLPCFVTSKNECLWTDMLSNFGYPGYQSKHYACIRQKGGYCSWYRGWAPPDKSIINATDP

T2: recombinant mouse TIMP-3 (mouse, UniProt P39876 24-211)
T2 construct: also called MuTIMP-3
T2 sequence (looked up): T1 sequence (looked up) with T51S, D87E, Q103H, I183S

B1: LRP-1 peptide LA5-6 (peptide)
chain: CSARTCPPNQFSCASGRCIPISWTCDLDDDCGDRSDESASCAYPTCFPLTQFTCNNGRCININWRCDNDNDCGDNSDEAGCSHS
notes: Tags implied (Ni-NTA, anti-HA detection), not described
B2: LRP-1 peptide LA15-17 (peptide)
chain: CPLNYFACPSGRCIPMSWTCDKEDDCEHGEDETHCNKFCSEAQFECQNHRCISKQWLCDGSDDCGDGSDEAAHCEGKTCGPSSFSCPGTHVCVPERWLCDGDKDCADGADESIAAGCLYNST
notes: The end 2817 is inferred from the end of LA17
B3: LRP-1 peptide LA25 (peptide)
chain: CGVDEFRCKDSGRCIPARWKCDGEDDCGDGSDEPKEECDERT
notes: as for B1
B4: LRP-1 peptide LA15 (peptide)
chain: not shown
notes: The end 2733 is inferred from the start of LA16 (2734)
B5: LRP-1 peptide LA25-26 (peptide)
chain: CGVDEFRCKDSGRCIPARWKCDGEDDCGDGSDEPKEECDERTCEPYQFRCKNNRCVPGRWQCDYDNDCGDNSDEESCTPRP
B6: LRP-1 peptide LA3-4 (peptide)
chain: not shown
notes: as for B1
B7: LRP-1 peptide LA24-25 (peptide)
chain: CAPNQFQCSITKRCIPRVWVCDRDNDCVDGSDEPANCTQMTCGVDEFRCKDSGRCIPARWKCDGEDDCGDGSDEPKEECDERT
notes: as for B1
B8: LRP-1 peptide LA24 (peptide)
chain: not shown
notes: as for B1
B9: LRP-1 peptide LA8-10 (peptide)
chain: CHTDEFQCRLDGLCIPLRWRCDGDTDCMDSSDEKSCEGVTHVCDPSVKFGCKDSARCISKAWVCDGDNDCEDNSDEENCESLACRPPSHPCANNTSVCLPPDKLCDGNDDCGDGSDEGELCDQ
notes: The end 1184 is inferred from the end of Cluster II; Tags implied, not described
B10: LRP-1 peptide LA4 (peptide)
chain: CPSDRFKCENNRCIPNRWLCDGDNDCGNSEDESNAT
notes: as for B1

The binders below were run against T1, recombinant human TIMP-3 (assay: indirect ELISA, huTIMP-3 captured by anti-TIMP-3 clone 277128).
Experimental: (§1) Then 100 microL/well of the diluted LRP-1 peptide titration is added to the TIMP-3 coated plate and allowed to bind for 1.5 hour at room temperature with shaking. After incubation, the plate is washed three times with 200 microL/well of wash buffer 2 (TBS [pH 7.5], 1 mM CaCl₂, 0.02% Tween-20). […] The assay plate is then washed three times with 200 microL/well with wash buffer 2. The plate is developed by adding 100 microL/well of 1:1 mixture of TMB and H₂O₂ (Pierce, Fisher Thermo Scientific, Rockford Il.), the reaction is stopped by adding 100 microL/well 2NH₂SO₄ (VWR), and read on a SpectraMax microplate reader (Molecular Devices, Sunnyvale, Calif.) at OD450 nm using SOFTmax Pro software version 3.1.2. Data is analyzed using GraphPad Prism 4.01 software. Binding of LRP-1 peptides to TIMP-3 is expressed as binding EC50.
After incubation, the plate contents are discarded and 250 microL/well of blocking buffer (1% BSA, TBS [pH 7.5], 1 mM CaCl₂) is added to the plate which is incubated with shaking for 1 hour at room temperature. The plate is then washed three times with 200 microL/well with wash buffer 1 (TBS [pH 7.5], 1 mM CaCl₂) followed by the addition of 100 microL of 20 nM recombinant human TIMP-3. The plate is incubated at room temperature for 1 hour. The LRP-1 peptides are titrated as described previously, and 100 microL/well of the diluted LRP-1 peptide titration is added to the TIMP-3 coated plate and allowed to bind for 1.5 hour at room temperature with shaking. After incubation, the plate is washed and the ELISA performed substantially as described previously for the direct binding ELISA.

EC50 | Binder
78 nM | B1
100 nM | B2
447 nM | B3
378 nM | B4
41 nM and 20 nM | B5
81 nM | B6
32 nM | B7
10 nM | B8
219 nM | B9

The binders below were run against MMP-13 (UniProt P45452 20-471, limits assumed) (assay: cell-based or functional assay).

Direct Inhibition of MMP13 (% decrease), 1000 nM | Binder
16% | B1
61% | B4
-22% | B8
-6% | B9

Each binder was assayed against T1, recombinant human TIMP-3 (assay: cell-based or functional assay).

% of the inhibitory activity of TIMP-3 + peptide compared to TIMP-3 alone, 16 nM | % of the inhibitory activity of TIMP-3 + peptide compared to TIMP-3 alone, 80 nM | % of the inhibitory activity of TIMP-3 + peptide compared to TIMP-3 alone, 400 nM | % of the inhibitory activity of TIMP-3 + peptide compared to TIMP-3 alone, 2000 nM | Binder
97% | 80% | 72% | 65% | B1
95% | 82% | 83% | 91% | B2
96% | 95% | 94% | 94% | B3
104% | 95% | 67% | 58% | B4
97% | 101% | 105% | 101% | B5
104% | – | 84% | 91% | B6
90% | 88% | 87% | 92% | B7
104% | 104% | – | 81% | B8
94% | 89% | 84% | 93% | B9

These binders were tested against T3, recombinant TIMP-3 (human or mouse; Table 2 does not say which) (assay: AlphaScreen, biotinylated TIMP-3, Assay 2).
T3 construct: The methods say 'human or mouse TIMP-3'
Experimental: (§2) Peptides were also evaluated by AlphaScreen® (Amplified Luminescent Proximity Homogeneous Assay; PerkinElmer, Waltham, Mass.) a very sensitive non-radioactive homogeneous assay technology that allows the screening of a large range of biological interactions and activities, substantially according to the manufacturer's instructions. Briefly, all dilutions are made in AlphaScreen® Buffer: [40 mM HEPES pH 7.5, 100 mM NaCl, 1 mM CaCl2, 0.1% BSA, 0.05% Tween-20]. The LRP-1 peptides are titrated in a separate polypropylene 96-well plate (Falcon) starting at 4 microM concentration and then diluted serially 3-fold for 12-points, with the last point buffer only. First 2 microL/well of protein titration curve is added to white, small volume, 384-well assay plate (Greiner Bio-One, Stonehouse, UK) in duplicate. Next, 2 microL of biotinylated (AFS, in-house conjmicroGation) recombinant human or mouse TIMP-3, is added at 12 nM (or 3 nM final assay concentration) to the assay plate. Lastly, in subdued light 4 microL of a mixture of streptavidin donor beads, anti-mouse IgG acceptor beads (PerkinElmer) both diluted to 20 microG/mL (10 microG/mL final assay concentration) and 2 nM (1 nM final concentration) rat-anti-HA (clone3F10)-HRP (Roche Diagnostics) is added to the plates. Plates containing 8 microL final assay volme are covered with TopSeal A (to prevent evaporation), spun quickly at 1000 rpm, and incubated overnight (covered with foil to prevent light exposure) before reading on Fusion plate reader (PerkinElmer) using AlphaScreen® parameters (excitation 680 nm and emission 520-620 nm). Data is analyzed using GraphPad Prism 4.01 software. Binding to TIMP-3 is reported as total signal (cps).

total signal (cps) | Binder
4000 cps | B1
70000 cps | B2
2000 cps | B3
2000 cps | B4
5000 cps | B5
3500 cps | B6
2000 cps | B10
130000 cps | B7
2000 cps | B8
100000 cps | B9

These binders were tested against T1, recombinant human TIMP-3 (assay: direct ELISA, coated huTIMP-3).
Experimental: as §1, with “After incubation, the coating solution is removed and replaced with 250 microL/well of blocking buffer (1% BSA, TBS [pH 7.5], 1 mM CaCl₂) and incubated with shaking for 1 hour at room temperature. The plates are then washed three times with 200 microL/well with wash buffer 1 (TBS [pH 7.5], 1 mM CaCl₂). The LRP-1 peptides are titrated in assay buffer (0.1% BSA, TBS [pH 7.5], 1 mM CaCl₂, 0.02% Tween-20) in a separate polypropylene non-treated round-bottom 96-well plate (BD Falcon™) starting at 1 microM concentration and then diluted serially 4-fold for 8-points, with the last point buffer only. Then” for “Then”

EC50 | Binder
510 nM | B2
742 nM | B3
901 nM | B4
167 nM and 99 nM | B5
226 nM | B6
162 nM | B7
68 nM | B8

The binders below were run against T3, recombinant TIMP-3 (human or mouse; …) (assay: binding ELISA, Assay 1).

EC50 | Binder
193 nM | B2

What follows are binders tested against T3, recombinant TIMP-3 (human or mouse; …) (assay: AlphaScreen, biotinylated TIMP-3, Assay 1).
Experimental: as §2

total signal (cps) | Binder
6000 cps | B1
90000 cps | B2
5000 cps | B3
2200 cps | B4
20000 cps | B5
9000 cps | B6
2200 cps | B10
290000 cps | B7
2200 cps | B8
110000 cps | B9

The binders below were run against T3, recombinant TIMP-3 (human or mouse; …) (assay: binding ELISA, Assay 2).

EC50 | Binder
400 nM | B1
1220 nM | B3
~5000 nM | B4
673 nM | B5
289 nM | B6
900 nM | B10
211 nM | B7
~500 nM | B8

Each binder was assayed against T2, recombinant mouse TIMP-3 (assay: direct ELISA, coated muTIMP-3).
Experimental: as §1, with “After incubation, the coating solution is removed and replaced with 250 microL/well of blocking buffer (1% BSA, TBS [pH 7.5], 1 mM CaCl₂) and incubated with shaking for 1 hour at room temperature. The plates are then washed three times with 200 microL/well with wash buffer 1 (TBS [pH 7.5], 1 mM CaCl₂). The LRP-1 peptides are titrated in assay buffer (0.1% BSA, TBS [pH 7.5], 1 mM CaCl₂, 0.02% Tween-20) in a separate polypropylene non-treated round-bottom 96-well plate (BD Falcon™) starting at 1 microM concentration and then diluted serially 4-fold for 8-points, with the last point buffer only. Then” for “Then”

EC50 | Binder | binding result
332 nM | B1 | –
306 nM | B2 | –
117 nM and 80 nM | B5 | –
155 nM | B6 | –
– | B10 | no binding (tested: titration from 1 microM)
124 nM | B7 | –
66 nM | B8 | –
696 nM | B9 | –

Each binder was assayed against T3, recombinant TIMP-3 (human or mouse; …) (assay: binding ELISA, Assay 3).

EC50 | Binder
512 nM | B1
191 nM | B2
~1000 nM | B3
~1500 nM | B4
500 nM | B6
~3000 nM | B10
436 nM | B7
~1000 nM | B8
657 nM and 1040 nM | B9
